Measured values: US20250011411A1 (JIANGSU HENGRUI PHARMACEUTICALS, published 2025)
Where a chain is given by its changes, count along the chain named.

T1: human sclerostin (SOST) (human, UniProt Q9BQB4 24-213)
T1 construct: also called human SOST; h-SOST
T1 sequence (looked up): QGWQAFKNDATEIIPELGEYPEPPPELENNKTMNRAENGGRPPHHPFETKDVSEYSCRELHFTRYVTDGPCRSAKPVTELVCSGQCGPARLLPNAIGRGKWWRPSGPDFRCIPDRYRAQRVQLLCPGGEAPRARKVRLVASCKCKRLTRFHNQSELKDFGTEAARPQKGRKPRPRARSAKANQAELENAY

B1: murine anti-human SOST monoclonal antibody Ab-1 (antibody, V domains shown)
VH: EVQLQQSGPELVKPGTSVKIPCQTSGYTFTDYNLDWLKQRPGESLEWIGDIDPNNGDILYNQKFRDKATLTVDTSSNTAYLELRSLTSEDTAVYYCARRWAYYFDYWGQGTTLTISS
VL: NIVMTQTPKLLFVSAGDRITITCKASQSVSNDVAWYQQKPGQSPKLLIYYTSNRFTGVPDRFTGSGYGTDFTLTINTVQAEDLAVYFCQQDYSSPVTFGAGTKLELK
notes: Murine hybridoma antibody; also called monoclonal hybridoma cell strain Ab-1; murine antibody Ab-1
B2: humanized anti-SOST antibody Ab-5 (antibody, human IgG4 S228P, kappa, V domains shown)
VH: EVQLVQSGAEVKKPGASVKVSCKASGYTFTDYNLDWLRQAPGEGLEWIGDIDPNDGDILYNQKFRDRVTMTTDTSTSTAYMELRSLRSDDTAVYYCARRWAYYFDYWGQGTTVTVSS
VL: DIVMTQSPSSLSASVGDRVTITCKASQSVSNDVAWYQQKPGKSPKLLIYYTSNRFTGVPDRFSGSGSGTDFTLTISSLQPEDFATYFCQQDYSSPVTFGGGTKVEIKR
notes: Human IgG4 heavy chain and kappa light chain
B3: humanized anti-SOST antibody Ab-10 (antibody, human IgG1, kappa, V domains shown)
VH: B2 VH with L37V, E43Q, I48M, D55N
VL: B2 VL with V3Q, S43A, D60S, F87Y
notes: kappa light chain
B4: humanized anti-SOST antibody Ab-9 (antibody, human IgG4 S228P, kappa, V domains shown)
VH: B2 VH with D55N
VL: B2 VL with D1N
notes: as for B2

Columns and labels:
human sclerostin (SOST) [1] = target: T1, human sclerostin (SOST); assay: blocking of the binding of human SOST to human LRP-6
human sclerostin (SOST) [2] = target: T1, human sclerostin (SOST); assay: ELISA binding to human sclerostin (assay not given; taken from the text of Example 1)
human sclerostin (SOST) [3] = target: T1, human sclerostin (SOST); assay: binding ELISA, antigen-receptor binding blocking experiments, Biacore; no numbers given

Binder | IC50 (human sclerostin (SOST) [1]) [nM] | EC50 (human sclerostin (SOST) [2]) [nM] | binding result (human sclerostin (SOST) [3])
B1 | 9.91 | 0.701 | –
B2 | – | – | binds
B3 | – | – | binds
B4 | – | – | binds
